Test results: patent US20180282410A1 (Hoffmann-La Roche, published 2018)
Read-outs that look alike come from different tables or passages of the source.

T1: mouse Robo 4 on MS-1 mouse endothelial cells (mouse, UniProt Q8C310 28-1012)
T1 sequence: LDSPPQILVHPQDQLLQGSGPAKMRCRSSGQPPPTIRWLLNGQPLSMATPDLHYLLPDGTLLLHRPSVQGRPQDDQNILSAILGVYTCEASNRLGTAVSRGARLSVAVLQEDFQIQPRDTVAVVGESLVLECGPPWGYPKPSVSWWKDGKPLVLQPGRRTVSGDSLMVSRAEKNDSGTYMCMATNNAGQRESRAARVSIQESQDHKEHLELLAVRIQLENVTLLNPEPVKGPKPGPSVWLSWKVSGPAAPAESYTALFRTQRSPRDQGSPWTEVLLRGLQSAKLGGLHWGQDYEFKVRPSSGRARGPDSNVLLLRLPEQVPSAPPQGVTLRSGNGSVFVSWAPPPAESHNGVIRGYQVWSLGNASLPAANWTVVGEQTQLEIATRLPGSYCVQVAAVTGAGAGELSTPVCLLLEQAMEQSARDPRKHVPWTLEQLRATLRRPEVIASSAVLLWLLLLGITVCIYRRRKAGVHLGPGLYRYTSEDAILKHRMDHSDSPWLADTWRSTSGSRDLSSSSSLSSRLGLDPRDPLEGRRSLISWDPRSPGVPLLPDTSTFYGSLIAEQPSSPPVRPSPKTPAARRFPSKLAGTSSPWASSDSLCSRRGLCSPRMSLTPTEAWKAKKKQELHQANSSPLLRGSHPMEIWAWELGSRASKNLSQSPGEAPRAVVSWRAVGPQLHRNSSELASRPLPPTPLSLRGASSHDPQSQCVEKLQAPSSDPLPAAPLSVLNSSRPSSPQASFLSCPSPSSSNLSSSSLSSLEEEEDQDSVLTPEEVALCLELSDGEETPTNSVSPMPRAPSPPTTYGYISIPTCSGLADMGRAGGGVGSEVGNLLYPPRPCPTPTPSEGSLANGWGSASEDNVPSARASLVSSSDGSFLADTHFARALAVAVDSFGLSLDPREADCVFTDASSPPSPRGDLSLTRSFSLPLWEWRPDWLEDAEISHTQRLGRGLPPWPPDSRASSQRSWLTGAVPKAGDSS

T2: full-length human Robo 4 (on cells) (human, UniProt Q8WZ75 28-1007)
T2 sequence: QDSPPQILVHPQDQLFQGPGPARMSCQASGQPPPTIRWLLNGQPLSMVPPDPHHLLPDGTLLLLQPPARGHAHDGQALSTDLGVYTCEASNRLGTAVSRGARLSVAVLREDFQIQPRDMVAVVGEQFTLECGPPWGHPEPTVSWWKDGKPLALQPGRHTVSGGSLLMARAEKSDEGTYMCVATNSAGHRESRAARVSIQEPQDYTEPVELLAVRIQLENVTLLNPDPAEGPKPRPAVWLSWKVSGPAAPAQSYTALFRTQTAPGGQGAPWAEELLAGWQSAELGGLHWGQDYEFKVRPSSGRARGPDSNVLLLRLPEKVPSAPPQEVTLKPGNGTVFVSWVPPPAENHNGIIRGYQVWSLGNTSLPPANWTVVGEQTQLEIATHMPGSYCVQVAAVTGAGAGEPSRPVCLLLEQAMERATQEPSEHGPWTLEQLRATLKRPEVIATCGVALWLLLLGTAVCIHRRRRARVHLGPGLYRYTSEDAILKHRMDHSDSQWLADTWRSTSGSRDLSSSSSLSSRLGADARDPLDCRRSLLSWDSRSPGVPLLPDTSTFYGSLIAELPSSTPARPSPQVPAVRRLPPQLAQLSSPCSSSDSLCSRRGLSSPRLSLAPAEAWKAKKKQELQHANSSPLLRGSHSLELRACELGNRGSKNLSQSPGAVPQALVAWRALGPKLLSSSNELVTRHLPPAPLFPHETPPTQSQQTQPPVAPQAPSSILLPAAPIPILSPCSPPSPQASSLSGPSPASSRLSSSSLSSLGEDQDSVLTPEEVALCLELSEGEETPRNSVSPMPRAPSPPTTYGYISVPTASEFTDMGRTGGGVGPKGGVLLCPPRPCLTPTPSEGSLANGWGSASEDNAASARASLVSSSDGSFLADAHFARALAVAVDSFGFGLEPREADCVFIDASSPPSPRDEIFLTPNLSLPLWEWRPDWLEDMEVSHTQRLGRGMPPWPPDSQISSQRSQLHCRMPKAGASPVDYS


Key:
[1] = target: T3, recombinant human Robo1 antigen (human, UniProt Q9Y6N7 59-886, limits assumed); experiment: ELISA, hybridoma supernatant
T3 construct: limits of the construct and tags are not described in the text; also called human Robol
T3 sequence (Q9Y6N7 other isoform, or with tags, fused parts or gaps limits assumed): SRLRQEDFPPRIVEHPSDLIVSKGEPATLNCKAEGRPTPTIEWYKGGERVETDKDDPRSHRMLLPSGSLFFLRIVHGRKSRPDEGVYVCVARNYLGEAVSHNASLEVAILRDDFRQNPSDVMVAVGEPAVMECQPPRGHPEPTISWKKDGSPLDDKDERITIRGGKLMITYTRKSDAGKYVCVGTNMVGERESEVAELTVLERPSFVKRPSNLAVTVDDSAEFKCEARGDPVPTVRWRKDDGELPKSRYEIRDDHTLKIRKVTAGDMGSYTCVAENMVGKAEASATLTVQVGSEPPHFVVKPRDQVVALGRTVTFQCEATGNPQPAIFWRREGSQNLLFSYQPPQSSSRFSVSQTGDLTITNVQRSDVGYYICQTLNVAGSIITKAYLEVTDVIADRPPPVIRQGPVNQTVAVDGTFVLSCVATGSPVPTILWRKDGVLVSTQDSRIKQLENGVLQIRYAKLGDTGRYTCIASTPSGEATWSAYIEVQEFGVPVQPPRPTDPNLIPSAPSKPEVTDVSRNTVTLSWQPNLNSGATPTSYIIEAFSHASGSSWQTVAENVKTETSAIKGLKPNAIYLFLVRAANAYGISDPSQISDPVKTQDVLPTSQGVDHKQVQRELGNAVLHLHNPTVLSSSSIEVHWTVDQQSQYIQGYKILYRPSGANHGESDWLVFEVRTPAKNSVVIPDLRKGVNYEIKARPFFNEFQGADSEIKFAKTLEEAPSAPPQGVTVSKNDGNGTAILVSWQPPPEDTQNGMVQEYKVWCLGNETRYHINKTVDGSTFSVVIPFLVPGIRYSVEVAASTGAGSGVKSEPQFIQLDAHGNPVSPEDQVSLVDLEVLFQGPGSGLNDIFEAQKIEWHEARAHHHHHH

[2] = target: T1, mouse Robo 4 on MS-1 mouse endothelial …; experiment: cell-based or functional assay
[3] = target: T1, mouse Robo 4 on MS-1 mouse endothelial …; experiment: cell-based or functional assay; remark: listed apart in the source
[4] = target: T2, full-length human Robo 4 (on cells); experiment: cell-based or functional assay
[5] = target: T2, full-length human Robo 4 (on cells); experiment: cell-based or functional assay; remark: listed apart in the source
[6] = target: T2, full-length human Robo 4 (on cells); experiment: cell-based or functional assay; remark: listed apart in the source
[7] = target: T1, mouse Robo 4 on MS-1 mouse endothelial …; experiment: cell-based or functional assay; remark: listed apart in the source

Row | Binder | binding result [1] | EC50 of T-cell mediated killing of MS-1 cells (LDH release, human pan T cells, E:T 5:1, 17 h) [3] | EC50 of T-cell mediated killing of HUVECs (LDH release, human pan T cells, E:T 5:1, 22 h) [4] | EC50 of T-cell mediated killing of HUVECs (LDH release, human PBMCs, E:T 10:1), 24 h [5] | EC50 of T-cell mediated killing of HUVECs (LDH release, human PBMCs, E:T 10:1), 48 h [5] | also measured
1 | 01F05 hybridoma clone (Armenian hamster IgG, supernatant) (antibody, V domains shown) VH: QVQLKQSGAELVKPGASVKISCKTSVYTFTYGYMHWVEQKPGQGLEWIGRIDPDSGNSMYNQKFQGRATLTRDKSSSTVYMELRSLTSEDSAVYYCARSMRYSGYRDYALDLWGQGTQVTVSS VL: QLVLTQSPSASASLGASVKLTCTLSSQHSSYGITWLQQHPDKAPKYVMYLKSDGSHTKGADIPDRFSGSSSGVHRYLSISNVQPEDEAIYFCVTYDSTHVFGSGTQLTVLG | no binding |  |  |  |  | 
2 | 01E06 hybridoma clone (Armenian hamster IgG, supernatant) (antibody, V domains shown) VH: EVQLVESGGGLSQPGNSLKLSCEASGFTFRNYDMSWVRQAPGKGLEWVAYISSGGGPIYYVDAVKGRFTISRDNAKNLLFLQMNNLRSEDTAVYYCARDLADIGVFDYWGQGTMVTVSS VL: DFKMTQSPDILSPSLGESVTITCQSSQNIYSNLAWYQQKPGEHPKLLIYTASILADGIPSRFTGSGSGTQFSLKISSLQPDDVANYYCQQYVYYRTFGPGTKLEIK | no binding |  |  |  |  | 
3 | Molecule J, 1+1 Fab-CrossFab (VH/VL exchange in CD3 binder, CD3 binder V9, Robo 4 binder 01F05) (bispecific antibody) chain 1: QVQLKQSGAELVKPGASVKISCKTSVYTFTYGYMHWVEQKPGQGLEWIGRIDPDSGNSMYNQKFQGRATLTRDKSSSTVYMELRSLTSEDSAVYYCARSMRYSGYRDYALDLWGQGTQVTVSSASTKGPSVFPLAPSSKSTSGGTAALGCLVKDYFPEPVTVSWNSGALTSGVHTFPAVLQSSGLYSLSSVVTVPSSSLGTQTYICNVNHKPSNTKVDKKVEPKSCDGGGGSGGGGSDIQMTQSPSSLSASVGDRVTITCRASQDIRNYLNWYQQKPGKAPKLLIYYTSRLESGVPSRFSGSGSGTDYTLTISSLQPEDFATYYCQQGNTLPWTFGQGTKVEIKSSASTKGPSVFPLAPSSKSTSGGTAALGCLVKDYFPEPVTVSWNSGALTSGVHTFPAVLQSSGLYSLSSVVTVPSSSLGTQTYICNVNHKPSNTKVDKKVEPKSC chain 2: QLVLTQSPSASASLGASVKLTCTLSSQHSSYGITWLQQHPDKAPKYVMYLKSDGSHTKGADIPDRFSGSSSGVHRYLSISNVQPEDEAIYFCVTYDSTHVFGSGTQLTVLGQPKAAPSVTLFPPSSEELQANKATLVCLISDFYPGAVTVAWKADSSPVKAGVETTTPSKQSNNKYAASSYLSLTPEQWKSHRSYSCQVTHEGSTVEKTVAPTECS chain 3: EVQLVESGGGLVQPGGSLRLSCAASGYSFTGYTMNWVRQAPGKGLEWVALINPYKGVSTYNQKFKDRFTISVDKSKNTAYLQMNSLRAEDTAVYYCARSGYYGDSDWYFDVWGQGTLVTVSSASVAAPSVFIFPPSDEQLKSGTASVVCLLNNFYPREAKVQWKVDNALQSGNSQESVTEQDSKDSTYSLSSTLTLSKADYEKHKVYACEVTHQGLSSPVTKSFNRGEC |  | 0.004 nM | 0.026 nM | 0.204 nM | 0.127 nM | EC50 of T-cell mediated killing of MS-1 cells (LDH release, human PBMCs, E:T 10:1), 24 h [2]: 0.294 nM; EC50 of T-cell mediated killing of MS-1 cells (LDH release, human PBMCs, E:T 10:1), 48 h [2]: 0.106 nM; EC50 of T-cell mediated killing of HUVECs (LDH release, human PBMCs, E:T 10:1), 24 h [6]: 0.105 nM; EC50 of T-cell mediated killing of HUVECs (LDH release, human PBMCs, E:T 10:1), 48 h [6]: 0.0472 nM
4 | Molecule B, 1+1 CrossFab-IgG (VH/VL exchange in CD3 binder, CD3 binder V9, Robo 4 binder 01F05) (bispecific antibody) chain 1: not shown chain 2: QLVLTQSPSASASLGASVKLTCTLSSQHSSYGITWLQQHPDKAPKYVMYLKSDGSHTKGADIPDRFSGSSSGVHRYLSISNVQPEDEAIYFCVTYDSTHVFGSGTQLTVLGQPKAAPSVTLFPPSSEELQANKATLVCLISDFYPGAVTVAWKADSSPVKAGVETTTPSKQSNNKYAASSYLSLTPEQWKSHRSYSCQVTHEGSTVEKTVAPTECS chain 3: EVQLVESGGGLVQPGGSLRLSCAASGYSFTGYTMNWVRQAPGKGLEWVALINPYKGVSTYNQKFKDRFTISVDKSKNTAYLQMNSLRAEDTAVYYCARSGYYGDSDWYFDVWGQGTLVTVSSASVAAPSVFIFPPSDEQLKSGTASVVCLLNNFYPREAKVQWKVDNALQSGNSQESVTEQDSKDSTYSLSSTLTLSKADYEKHKVYACEVTHQGLSSPVTKSFNRGEC chain 4: DKTHTCPPCPAPEAAGGPSVFLFPPKPKDTLMISRTPEVTCVVVDVSHEDPEVKFNWYVDGVEVHNAKTKPREEQYNSTYRVVSVLTVLHQDWLNGKEYKCKVSNKALGAPIEKTISKAKGQPREPQVCTLPPSRDELTKNQVSLSCAVKGFYPSDIAVEWESNGQPENNYKTTPPVLDSDGSFFLVSKLTVDKSRWQQGNVFSCSVMHEALHNHYTQKSLSLSPGK |  | 0.115 nM | 0.164 nM | 1.61 nM | 1.55 nM | 
5 | Molecule K, 1+1 Fab-CrossFab (VH/VL exchange in CD3 binder, CD3 binder 2C11, Robo 4 binder 01F05) (bispecific antibody) chain 1: DIQMTQSPSSLPASLGDRVTINCQASQDISNYLNWYQQKPGKAPKLLIYYTNKLADGVPSRFSGSGSGRDSSFTISSLESEDIGSYYCQQYYNYPWTFGPGTKLEIKSSASTKGPSVFPLAPSSKSTSGGTAALGCLVKDYFPEPVTVSWNSGALTSGVHTFPAVLQSSGLYSLSSVVTVPSSSLGTQTYICNVNHKPSNTKVDKKVEPKSCGGGGSGGGGSQVQLKQSGAELVKPGASVKISCKTSVYTFTYGYMHWVEQKPGQGLEWIGRIDPDSGNSMYNQKFQGRATLTRDKSSSTVYMELRSLTSEDSAVYYCARSMRYSGYRDYALDLWGQGTQVTVSSASTKGPSVFPLAPSSKSTSGGTAALGCLVKDYFPEPVTVSWNSGALTSGVHTFPAVLQSSGLYSLSSVVTVPSSSLGTQTYICNVNHKPSNTKVDKKVEPKSCD chain 2: QLVLTQSPSASASLGASVKLTCTLSSQHSSYGITWLQQHPDKAPKYVMYLKSDGSHTKGADIPDRFSGSSSGVHRYLSISNVQPEDEAIYFCVTYDSTHVFGSGTQLTVLGQPKAAPSVTLFPPSSEELQANKATLVCLISDFYPGAVTVAWKADSSPVKAGVETTTPSKQSNNKYAASSYLSLTPEQWKSHRSYSCQVTHEGSTVEKTVAPTECS chain 3: EVQLVESGGGLVQPGKSLKLSCEASGFTFSGYGMHWVRQAPGRGLESVAYITSSSINIKYADAVKGRFTVSRDNAKNLLFLQMNILKSEDTAMYYCARFDWDKNYWGQGTMVTVSSASVAAPSVFIFPPSDEQLKSGTASVVCLLNNFYPREAKVQWKVDNALQSGNSQESVTEQDSKDSTYSLSSTLTLSKADYEKHKVYACEVTHQGLSSPVTKSFNRGEC |  |  |  |  |  | EC50 of T cell mediated killing of MS-1 cells by murine splenocytes (LDH release, E:T 10:1, 48 and 72 h) [7]: 1.3 nM
6 | 01F09 hybridoma clone (Armenian hamster IgG, supernatant) (antibody, V domains shown) VH: QIQLQESGPGLVKPSQSLSLTCSVTGYSISSGSLWTWIRQFPGNNLEWMGYISYAGGIDYNPSLTSRISITRDTSRNQFFLQLESVTTQDTATYYCATPGGYPFHFDYWGQGTMVTVSS VL: QPVLTQSPSASASLGASVKLTCTLNSQFSTYNIGWYQQHRDKPPKYVMFVKGDGGHSKADGIPDRFSGSSSGADRYLTISNIQAEDEAIYFCGADYNNAGQYGCVFGSGTHFTVLG | no binding |  |  |  |  | 
